According to IntAct's records for PubMed 21242966:

B1: 14-3-3 protein epsilon (Rattus norvegicus (Rat)), P62260 (parent)
chain: MDDREDLVYQAKLAEQAERYDEMVESMKKVAGMDVELTVEERNLLSVAYKNVIGARRASWRIISSIEQKEENKGGEDKLKMIREYRQMVETELKLICCDILDVLDKHLIPAANTGESKVFYYKMKGDYHRYLAEFATGNDRKEAAENSLVAYKAASDIAMTELPPTHPIRLGLALNFSVFYYEILNSPDRACRLAKAAFDDAIAELDTLSEESYKDSTLIMQLLRDNLTLWTSDMQGDGEEQNKEALQDVEDENQ
B2: F-box only protein 4 (Homo sapiens), Q9UKT5 (parent)
chain: MAGSEPRSGTNSPPPPFSDWGRLEAAILSGWKTFWQSVSKERVARTTSREEVDEAASTLTRLPIDVQLYILSFLSPHDLCQLGSTNHYWNETVRDPILWRYFLLRDLPSWSSVDWKSLPDLEILKKPISEVTDGAFFDYMAVYRMCCPYTRRASKSSRPMYGAVTSFLHSLIIQNEPRFAMFGPGLEELNTSLVLSLMSSEELCPTAGLPQRQIDGIGSGVNFQLNNQHKFNILILYSTTRKERDRAREEHTSAVNKMFSRHNEGDDQQGSRYSVIPQIQKVCEVVDGFIYVANAEAHKRHEWQDEFSHIMAMTDPAFGSSGRPLLVLSCISQGDVKRMPCFYLAHELHLNLLNHPWLVQDTEAETLTGFLNGIEWILEEVESKRAR

How the values were obtained:
fbx4_human FBXO4, Q9UKT5 = variants of: B1; conditions: with fbx4_human FBXO4, Q9UKT5
[1] = variants of: B2; conditions: with 1433e_human YWHAE
[2] = variants of: B2; conditions: with 1433e_mouse Ywhae
[3] = variants of: B2; conditions: with 1433e_human YWHAE; remark: listed apart in the source
1433e_rat Ywhae, P62260 = variants of: B2; conditions: with 1433e_rat Ywhae, P62260

effect of a mutation on the interaction (fbx4_human FBXO4, Q9UKT5) | effect of a mutation on the interaction [1] | effect of a mutation on the interaction [2] | effect of a mutation on the interaction [3] | effect of a mutation on the interaction (1433e_rat Ywhae, P62260) | Variant
disrupting interaction |  |  |  |  | K50E
 | decreasing interaction | disrupting interaction | disrupting interaction | decreasing interaction | S8R
 |  | disrupting interaction | disrupting interaction | decreasing interaction | S12A
